Measurements from patent US20260077011A1, “INTEGRIN INHIBITORS AS THERAPY FOR OBESITY DISORDERS” (priority 2022, published 2026).
Where no end group is shown, it is not given here.

Columns and labels:
RAW264.7 cells = format: cell-based
Experimental: (§1) Cells were also analyzed for the FITC-labeled peptide, which was added to the suspension of RAW264.7 cells in doses of 100 nM, 1 μM, 3 μM, 10 μM, 30 μM, 100 μM, and 300 μM, for one hour. For the time curve binding assay, 3 μM of the FITC-peptide were incubated with cells for 1, 5, 15, 60, 180, and 360 minutes before and analyzed on flow cytometry. For the propidium iodide (PI) assay, cells were incubated with different doses of the peptide for eight and 24 hours, with 10% DMSO serving as a positive control; the cells were then suspended, stained with PI, and analyzed with flow cytometry.
To investigate the effects of the SVEP1-based peptide on the metabolic and proliferative capacity of macrophage cells, RAW264.7 cells were subjected to varying concentrations of the peptide (1, 10, 30, 120 μM). The cells' metabolic activity was assessed using XTT after 3, 8, and 24 hours of peptide treatment. […] To further evaluate cell viability, propidium iodide (PI) staining was conducted after 8 and 24 hours of peptide treatment. […] These findings provide evidence of the peptide's safety profile and its potential suitability for use in macrophage cells.

ITGA9 = molecular target: T1, ITGA9 (Mus musculus, UniProt B8JK39+P09055); test: FITC-peptide binding specificity in ITGA9 knockdown (siITGA9) cells; settings: RAW264.7 cells, FITC-peptide 30 μM, 60 minutes
T1 construct: RAW264.7 cells, a murine macrophage-like cell line, was chosen due to their similarity to macrophages, adhesive and migratory capabilities, and their expression of integrin α9β1; host or cells: RAW264.7
T1 sequence (B8JK39 29-1036): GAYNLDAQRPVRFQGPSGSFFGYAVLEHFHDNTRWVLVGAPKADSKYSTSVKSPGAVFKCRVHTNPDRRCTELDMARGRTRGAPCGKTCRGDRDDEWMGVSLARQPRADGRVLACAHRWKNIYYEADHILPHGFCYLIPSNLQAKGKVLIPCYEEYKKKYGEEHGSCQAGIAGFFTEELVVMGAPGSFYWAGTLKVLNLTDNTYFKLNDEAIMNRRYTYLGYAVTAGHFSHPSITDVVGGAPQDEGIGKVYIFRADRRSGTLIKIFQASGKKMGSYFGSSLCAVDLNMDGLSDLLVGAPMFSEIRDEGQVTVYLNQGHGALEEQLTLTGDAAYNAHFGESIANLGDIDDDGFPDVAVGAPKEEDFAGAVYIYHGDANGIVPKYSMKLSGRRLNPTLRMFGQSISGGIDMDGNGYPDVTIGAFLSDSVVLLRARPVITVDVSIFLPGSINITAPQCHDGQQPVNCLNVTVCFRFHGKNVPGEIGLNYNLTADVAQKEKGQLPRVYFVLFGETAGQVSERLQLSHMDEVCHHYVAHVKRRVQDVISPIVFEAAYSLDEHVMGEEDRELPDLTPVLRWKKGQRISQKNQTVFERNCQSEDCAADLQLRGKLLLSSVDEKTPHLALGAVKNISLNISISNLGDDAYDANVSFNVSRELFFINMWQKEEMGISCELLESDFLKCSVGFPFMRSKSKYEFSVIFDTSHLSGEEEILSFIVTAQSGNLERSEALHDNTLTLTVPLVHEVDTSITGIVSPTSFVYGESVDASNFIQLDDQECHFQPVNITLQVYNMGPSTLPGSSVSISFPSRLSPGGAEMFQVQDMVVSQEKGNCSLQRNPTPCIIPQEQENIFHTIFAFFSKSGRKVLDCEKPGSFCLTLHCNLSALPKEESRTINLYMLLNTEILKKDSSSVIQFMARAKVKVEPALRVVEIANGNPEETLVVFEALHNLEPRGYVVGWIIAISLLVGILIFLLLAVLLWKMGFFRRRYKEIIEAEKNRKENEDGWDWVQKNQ
T1 sequence (P09055 21-798): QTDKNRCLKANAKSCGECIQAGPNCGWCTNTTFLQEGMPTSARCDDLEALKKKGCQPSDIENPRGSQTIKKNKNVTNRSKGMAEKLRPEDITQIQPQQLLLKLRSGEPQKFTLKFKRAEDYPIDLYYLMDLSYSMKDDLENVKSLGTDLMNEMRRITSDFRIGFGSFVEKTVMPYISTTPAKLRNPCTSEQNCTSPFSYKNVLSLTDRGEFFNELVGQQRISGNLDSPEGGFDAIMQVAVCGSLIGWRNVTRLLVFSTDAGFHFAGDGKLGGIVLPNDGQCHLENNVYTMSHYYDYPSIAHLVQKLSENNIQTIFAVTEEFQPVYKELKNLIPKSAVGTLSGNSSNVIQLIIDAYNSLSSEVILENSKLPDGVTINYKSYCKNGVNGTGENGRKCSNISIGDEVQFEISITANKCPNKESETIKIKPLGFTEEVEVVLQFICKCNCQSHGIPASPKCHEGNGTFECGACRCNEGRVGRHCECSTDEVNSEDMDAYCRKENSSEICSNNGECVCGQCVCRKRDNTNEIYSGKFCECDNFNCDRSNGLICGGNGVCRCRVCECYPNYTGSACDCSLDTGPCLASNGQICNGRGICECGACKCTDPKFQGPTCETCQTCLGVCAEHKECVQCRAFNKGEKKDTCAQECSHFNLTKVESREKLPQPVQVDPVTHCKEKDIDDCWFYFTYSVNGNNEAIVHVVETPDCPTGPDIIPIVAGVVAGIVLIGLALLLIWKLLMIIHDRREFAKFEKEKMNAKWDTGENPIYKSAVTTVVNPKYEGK
Experimental: For siRNA assays, RAW264.7 cells were transfected by using Avalanche®-Everyday Transfection Reagent (Ezbio systems) with siSCR (Santa Cruz) and siITGA9 (Santa Cruz) in DMEM. The transfection solution was added to the cells for 48 hours, and the cells were examined after an additional 48 hours (96 hours in total).
(§2) RAW264.7 cells were incubated in PBS with 2% serum, 0.1% NaN3, and 1 mM EDTA for 20 minutes, collected, and centrifuged at 1800 rpm for 5 min. Next, the cells were suspended in a staining buffer; PBS with 2% serum and 0.1% NaN3 for 15 min on ice. The cells were stained for ITGA9-PE (R&D technologies).
In a previous study, a 9 amino-acid long sequence, “EDDMMEVPY”, was identified as the binding site of SVEP1 to integrin α9β1. […] The inventors first performed a dose-dependent uptake test, where the RAW264.7 cells were incubated with increasing peptide concentrations for half an hour and then measured in a flow cytometry assay. […] Next, the cells were pretreated with the peptide for different time durations and were also measured by flow cytometry analysis. The peptide bonded relatively quickly, with 50% of max mean fluorescence intensity presented after 15 minutes and stabilization after three hours (FIG. 5C). […]

integrin α9β1 [1] = molecular target: T2, integrin α9β1 (Mus musculus, UniProt B8JK39+P09055); test: Fluorescent live microscopy of FITC-peptide binding with/without unlabeled peptide; settings: RAW264.7 cells, FITC-peptide 30 μM
T2 construct: RAW264.7 cells, a murine macrophage-like cell line, was chosen due to their similarity to macrophages, adhesive and migratory capabilities, and their expression of integrin α9β1; host or cells: RAW264.7
T2 sequence (B8JK39 29-1036): as the sequence (B8JK39 29-1036) above
T2 sequence (P09055 21-798): as the sequence (P09055 21-798) above
Experimental: FIGS. 5A-5M include fluorescent micrographs and graphs showing characterization of the peptide's binding properties. (5A) Representative immunofluorescent confocal images of Raw264.7 cells stained for F4/80 and ITGA9, the dotted line square represents the magnified pictures, scale bar 116 μm. (5B) Flow cytometry quantification of LPS-activated RAW264.7 cells, ITGA9 MFI levels in LPS-activated RAW264.7 cells (4 hours), significance was calculated by unpaired t-test analysis. (5C) Calculated dose-response curve of Peptide-FITC positive RAW264.7 cells, measured in flow cytometry and time curve of the averaged mean fluorescent intensity (MFI) of RAW264.7 cells incubated with the labeled peptide, the MFI was calculated by flow cytometry. (5D) Representative images of RAW264.7 cells incubated with FITC-peptide (30 μM) for 15 and 60 minutes with and without an unlabeled peptide, scale bar=100 μm, and quantification of fluorescence intensity of RAW264.7 cells incubated with FITC-peptide (30 μM) for 15 and 60 minutes, w/o the unlabeled peptide, significance was calculated by using an ordinary one-way ANOVA. […] (5F) ITGA9 fluorescence intensity histogram in Scrambled and ITGA9 KD (Red) Raw264.7 cells incubated with FITC-peptide (30 μM) for 60 minutes, measured by flow cytometry. […]

integrin α9β1 [2] = molecular target: T2, integrin α9β1; test: FITC-peptide dose-dependent uptake and time curve binding, flow cytometry; settings: RAW264.7 cells
Experimental: as §2, §1
All labeled cells were analyzed by Cytoflex5l and Kaluza software (Beckman Coulter instrument).
In a previous study, a 9 amino-acid long sequence, “EDDMMEVPY”, was identified as the binding site of SVEP1 to integrin α9β1. To examine the effect of the peptide in vitro, RAW264.7 cells, a murine macrophage-like cell line, was chosen due to their similarity to macrophages, adhesive and migratory capabilities, and their expression of integrin α9β1, as shown in the confocal staining of ITGA9 and F4/80, with a seeming membranal expression of both (FIG. 5G). […] To characterize the binding properties of the peptide, a fluorescein isothiocyanate (FITC) labeled peptide was generated. The inventors first performed a dose-dependent uptake test, where the RAW264.7 cells were incubated with increasing peptide concentrations for half an hour and then measured in a flow cytometry assay. […] Next, the cells were pretreated with the peptide for different time durations and were also measured by flow cytometry analysis. The peptide bonded relatively quickly, with 50% of max mean fluorescence intensity presented after 15 minutes and stabilization after three hours (FIG. 5C). […]

Row | Substance | fraction of PI-positive cells compared to the untreated group (RAW264.7 cells) | FITC-peptide binding (fluorescence intensity) in siITGA9 versus scrambled cells (ITGA9) | percentage of ITGA9+FITC-peptide+ cells in KD cells (ITGA9; flow cytometry) | increase of fluorescence intensity after 60 minutes compared to 15 minutes (integrin α9β1 [1]) [%] | change of fluorescence intensity when co-incubated with the unlabeled peptide (integrin α9β1 [1]; competitive binding) | time to 50% of max mean fluorescence intensity (integrin α9β1 [2]; 3 μM FITC-peptide) [min] | time to stabilization of mean fluorescence intensity (integrin α9β1 [2]; 3 μM FITC-peptide) | percentage of Peptide-FITC positive cells (integrin α9β1 [2]; increasing peptide concentrations, half an hour)
1 | EDDMMEVPY [peptide, EDDMMEVPY] | remained unchanged | – | – | – | – | – | – | –
2 | FITC-peptide: fluorescein isothiocyanate (FITC) labeled peptide of 9 amino acids (EDDMMEVPY) (also: FITC labeled, site not given here) | – | lower intensity levels | significantly lower | 35 | decreased by a similar percentage | 15 | three | higher percentage of positive cells in a dose-related manner
